According to patent publication EP4790071A2 (Akeso Biopharma, Inc., dated 2026):

Molecular target: T1, human NT5E-Biotin (for NT5E, GenbankID: NP_002517.1, position: 1-552) (human, UniProt P21589 27-552, biotin label, site not stated)
T1 construct: range 1-552; Positions 1-552 as printed include the signal peptide; No cleavage site is stated; also called HNT5E-Biotin; antigen human NT5E-Biotin
T1 sequence (looked up): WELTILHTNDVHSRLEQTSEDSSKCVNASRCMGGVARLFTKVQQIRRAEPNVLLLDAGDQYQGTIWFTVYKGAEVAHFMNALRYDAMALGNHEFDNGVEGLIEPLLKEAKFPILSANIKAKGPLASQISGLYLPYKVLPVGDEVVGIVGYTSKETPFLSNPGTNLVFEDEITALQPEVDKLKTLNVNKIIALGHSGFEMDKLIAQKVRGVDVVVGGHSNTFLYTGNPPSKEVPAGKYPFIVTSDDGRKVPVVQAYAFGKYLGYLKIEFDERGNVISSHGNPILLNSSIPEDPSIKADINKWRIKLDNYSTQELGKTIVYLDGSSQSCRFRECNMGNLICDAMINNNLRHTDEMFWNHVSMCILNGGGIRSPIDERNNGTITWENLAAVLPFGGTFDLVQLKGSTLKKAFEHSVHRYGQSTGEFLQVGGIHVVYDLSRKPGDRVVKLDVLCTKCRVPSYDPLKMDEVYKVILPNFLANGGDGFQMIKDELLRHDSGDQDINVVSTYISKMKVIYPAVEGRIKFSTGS
Test: ELISA, NT5E-Biotin on streptavidin plate

B1: murine anti-CD73 monoclonal antibody 19F3 (antibody, V domains shown)
VH: EVQLQQSGPELVKPGASMRMSCKASGYSFTGYTMNWVKQSHGKNLEWIGLINPYNAGTSYNQKFKGKATLTVDKSSSTAYMELLSLTSEDSAVYYCARSEYRYGGDYFDYWGQGTTLTVSS
VL: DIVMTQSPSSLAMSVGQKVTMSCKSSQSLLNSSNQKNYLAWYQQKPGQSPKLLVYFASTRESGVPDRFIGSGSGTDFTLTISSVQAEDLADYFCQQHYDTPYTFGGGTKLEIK
notes: also called murine antibody 19F3
**Q.** B1 was tested. Which EC50 did it give?
**A.** 0.018 nM
